The values below are quoted from earlier work in article PMC2582146 (Biochemistry, 2008).

The target of this series is N1P1 domain. The note with it: read-out: affinity.

B1: C-terminal 70 residues of CFTR: C-terminal 70 residues of CFTR, literature construct (ref 41) (protein, UniProt P13569 1411-1480, looked up, fragment)
chain: QQFLVIEENKVRQYDSIQKLLNERSLFRQAISPSDRVKLFPHRNSSKCKSKPQIAALKEETEEEVQDTRL
For the molecule B1, the Kd was 0.298 µM.
